Measurements from patent US20230272055A1, “ANTI-MUTANT CALRETICULIN (CALR) ANTIBODIES AND USES THEREOF” (Incyte Corporation, priority 2021, published 2023).

What was measured:
[1] = target: recombinant Flag tag_GFP_tev_hmutCALR Type 1 (human); assay: HTRF competition against the mutCALR/MPL complex
[2] = target: Human Type 1 mutCALR (human); assay: cell-based or functional assay

Substance	concentration at which some signal inhibition was seen [1]	IC50 of inhibition of cell proliferation (BaF3 cells expressing MPL/mutCALR Type 1) [2]
CAL2 antibody (Dianova)	> 100 nM	
AB1: CAL2 antibody, Dianova		> 60 µg/mL
